Key:
[1] = target: BG505 SOSIP.664 gp140 trimer (HIV-1 clade A BG505); assay: SEC; Superdex 200 10/300 GL column, after GNL purification
[2] = target: gp120Sht-LS (clade-A BG505 gp120 fused to lumazine synthase) (HIV-1 clade A BG505 | Aquifex aeolicus); assay: native gel or EMSA

## BG505 SOSIP.664 gp140 trimer (complex)
[1]
  stoichiometry N: 3

## gp120Sht-LS (clade-A BG505 gp120 fused to lumazine synthase)
[2]
  stoichiometry N: 5

— article PMC4931238
